Experimental data: publication PMC8173106, “Modulating Enzyme Function via Dynamic Allostery within Biliverdin Reductase B” (Frontiers in Molecular Biosciences, 2021)
Changes are numbered by the printed parent chain. In names and notes the source's numbering stands.

B1: human BLVRB (biliverdin reductase B) (Homo sapiens; S111A) (protein)
chain: MAVKKIAIFGATGQTGLTTLAQAVQAGYEVTVLVRDSSRLPSEGPRPAHVVVGDVLQAADVDKTVAGQDAVIVLLGTRNDLSPTTVMSEGARNIVAAMKAHGVDKVVACTAAFLLWDPTKVPPRLQAVTDDHIRMHKVLRESGLKYVAVMPPHIGDQPLTGAYTVTLDGRGPSRVISKHDLGHFMLRCLTTDEYDGHSTYPSHQYQ
notes: full length, 206 residues; codon-optimised, pET21b (T164S in pJ401k); N-terminal 6xHis tag removed with thrombin
B2: human BLVRB (biliverdin reductase B) (Homo sapiens; T164I) (protein)
chain: B1 chain with A111S, T164I
notes: as for B1
B3: human BLVRB (biliverdin reductase B) (Homo sapiens; H153A) (protein)
chain: B1 chain with A111S, H153A
notes: as for B1
B4: human BLVRB (biliverdin reductase B) (Homo sapiens; T164A) (protein)
chain: B1 chain with A111S, T164A
notes: as for B1
B5: human BLVRB (biliverdin reductase B) (Homo sapiens; T164S) (protein)
chain: B1 chain with A111S, T164S
notes: as for B1

What follows are proteins tested on Cc1cc2nc3c(=O)[nH]c(=O)nc-3n(C[C@H](O)[C@H](O)[C@H](O)COP(=O)(O)OP(=O)(O)OC[C@H]3O[C@@H](n4cnc5c(N)ncnc54)[C@H](O)[C@@H]3O)c2cc1C (assay: purified protein). Conditions: co-substrate NADPH.
Assay type: biochemical, Homo sapiens

Row | Protein | Km [µM] | kcat [s⁻¹]
1 | B1 | 325 ± 96 | 0.021 ± 0.004
2 | B2 | 156 ± 18 | 0.049 ± 0.003
3 | B3 | 98 ± 11 | 0.059 ± 0.003
4 | B4 | 153 ± 18 | 0.063 ± 0.002
5 | B5 | 127 ± 15 | 0.039 ± 0.003
